Laboratory results taken from patent US20120219551A1.
Several values for one entry are separate records, joined by “and”; a condition that tells them apart may be missing. Equal values may be shown once.

Assays:
[1] = target: FcγRIIIA (CD16A), F158 allotype (human) (UniProt P08637); assay: BIAcore
FcγRIIB (CD32B) (human) [2] = target: FcγRIIB (CD32B) (human) (UniProt P31994); assay: BIAcore
[3] = target: FcγRIIA (CD32A), H131 allotype (human) (UniProt P12318); assay: BIAcore
[4] = target: FcγRIIIA (CD16A), F158 allotype (human) (UniProt P08637); assay: BIAcore (as Table 27)
FcγRIIB (CD32B) (human) [5] = target: FcγRIIB (CD32B) (human) (UniProt P31994); assay: BIAcore (as Table 27)
[6] = target: FcγRIIIA (CD16A), V158 allotype (human) (UniProt P08637); assay: BIAcore
[7] = target: FcγRIIIA (CD16A), V158 allotype (human) (UniProt P08637); assay: BIAcore (as Table 27)
[8] = target: FcγRIIIA (CD16A), F158 allotype (human) (UniProt P08637); assay: not stated; human FcRs
[9] = target: FcγRIIIA (CD16A), V158 allotype (human) (UniProt P08637); assay: not stated; human FcRs
FcγRIIB (CD32B) (human) [10] = target: FcγRIIB (CD32B) (human) (UniProt P31994); assay: not stated; human FcRs
[11] = target: FcγRIIA (CD32A), H131 allotype (human) (UniProt P12318); assay: not stated; human FcRs

FcγRIIIA (CD16A), V158 allotype (human), sequence (P08637 17-208 F176V limits assumed): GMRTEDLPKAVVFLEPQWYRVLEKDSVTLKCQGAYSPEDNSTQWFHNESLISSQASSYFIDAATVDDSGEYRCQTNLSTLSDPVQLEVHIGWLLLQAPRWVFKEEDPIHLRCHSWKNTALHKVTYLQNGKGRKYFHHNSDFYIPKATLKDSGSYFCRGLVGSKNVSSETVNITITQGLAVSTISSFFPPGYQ
FcγRIIIA (CD16A), F158 allotype (human), sequence (P08637 17-208 limits assumed): as the sequence (P08637 17-208 F176V limits assumed) above, with V160F counted along it
FcγRIIB (CD32B) (human), sequence (P31994 43-217 limits assumed): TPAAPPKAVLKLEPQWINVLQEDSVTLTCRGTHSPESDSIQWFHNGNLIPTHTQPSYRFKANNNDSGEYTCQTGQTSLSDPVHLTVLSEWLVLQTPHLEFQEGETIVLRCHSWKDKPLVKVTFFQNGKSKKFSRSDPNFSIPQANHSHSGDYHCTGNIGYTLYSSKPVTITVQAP
FcγRIIA (CD32A), H131 allotype (human), sequence (P12318 34-217 limits assumed): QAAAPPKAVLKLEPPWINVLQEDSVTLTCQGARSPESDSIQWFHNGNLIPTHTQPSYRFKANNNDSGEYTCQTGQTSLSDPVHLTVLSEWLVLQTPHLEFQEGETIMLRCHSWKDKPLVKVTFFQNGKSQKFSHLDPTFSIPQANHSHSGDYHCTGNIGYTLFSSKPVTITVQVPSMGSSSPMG

Substance | Koff WT/Koff mutant [1] | Koff WT/Koff mutant (FcγRIIB (CD32B) (human) [2]) | Koff WT/Koff mutant [3] | Koff WT/Koff mutant [4] | Koff WT/Koff mutant (FcγRIIB (CD32B) (human) [5]) | Koff WT/Koff mutant [6] | Koff WT/Koff mutant [7] | fold change vs wild-type affinity [8] | fold change vs wild-type affinity [9] | fold change vs wild-type affinity (FcγRIIB (CD32B) (human) [10]) | fold change vs wild-type affinity [11]
immunoglobulin with Fc variant F243L, P247L, N421K (antibody) | 1.71 | 0.17 | 0.39 | 1.71 | 0.17 | 1.89 | 1.89 |  |  |  | 
immunoglobulin with Fc variant F243L, R255L, D270E, P396L (antibody) | 1.64 | 0.38 | 1.44 | 1.64 | 0.38 | 1.75 | 1.75 |  |  |  | 
immunoglobulin with Fc variant F243L, R292P, P396L (antibody) |  |  |  |  |  |  |  | 2.4 fold | 5.3 fold | -1.6 fold | 0.4 fold
immunoglobulin with Fc variant F243L, R292P, V305I, P396L (antibody) |  |  |  |  |  |  |  |  | -3 fold | -1.6 fold | -0.3 fold
immunoglobulin with Fc variant R255L, D270E, P396L (antibody) |  |  |  |  |  |  |  | 0.7 fold | 0.3 fold | -0.1 fold | 
immunoglobulin with Fc variant R255L, D270E, Y300L, P396L (antibody) | 1.74 | 0.87 | 2.6 | 1.74 | 0.87 | 1.52 | 1.52 |  |  |  | 
immunoglobulin with Fc variant R255L, P396L (antibody) | 1.39 | 2.22 | 1.34 | 1.39 | 2.22 | 1.09 | 1.09 |  |  |  | 
immunoglobulin with Fc variant R292G (antibody) |  | 0.25 | 0.14 |  | 0.25 | 1.54 | 1.54 |  |  |  | 
immunoglobulin with Fc variant R292P, V305I, P396L (antibody) | 1.9 | 0.92 | 1.5 | 1.9 | 0.92 | 1.85 | 1.85 |  |  |  | 
immunoglobulin with Fc variant V284M, R292P, K370N (antibody) | 1.37 | 0.37 | 1.79 | 1.37 | 0.37 | 1.14 | 1.14 |  |  |  | 

Continued, values first:

Koff WT/Koff mutant [1] | Koff WT/Koff mutant (FcγRIIB (CD32B) (human) [2]) | Koff WT/Koff mutant [3] | Koff WT/Koff mutant [4] | Koff WT/Koff mutant (FcγRIIB (CD32B) (human) [5]) | Koff WT/Koff mutant [6] | Koff WT/Koff mutant [7] | fold change vs wild-type affinity [8] | fold change vs wild-type affinity [9] | fold change vs wild-type affinity (FcγRIIB (CD32B) (human) [10]) | fold change vs wild-type affinity [11] | Substance
3.12 | 1.05 | 1.49 | 3.12 | 1.05 |  |  |  |  |  |  | immunoglobulin with Fc variant F243I, R292P, Y300L, V305I, P396L (antibody)
1.34 | 0.2 | 1.22 | 1.34 | 0.2 | 1.5 | 1.5 |  |  |  |  | immunoglobulin with Fc variant F243L, D270E, G316D, R416G (antibody)
2.44 | 0.44 | 1.7 | 2.44 | 0.44 | 3.16 | 3.16 |  |  |  |  | immunoglobulin with Fc variant F243L, D270E, K392T, P396L (antibody)
1.15 | 0.26 | 1.11 | 1.15 | 0.26 | 1.46 | 1.46 |  |  |  |  | immunoglobulin with Fc variant F243L, D270E, P396L, Q419H (antibody)
3.45 | 0.32 | 0.98 | 3.45 | 0.32 | 2.3 | 2.3 |  |  |  |  | immunoglobulin with Fc variant F243L, P247L, D270E, N421K (antibody)
1.6 | 2.22 | 1.5 | 1.6 | 2.22 | 1.49 | 1.49 |  |  |  |  | immunoglobulin with Fc variant F243L, P396L (antibody)
1.81 | 2.35 | 1.22 | 1.81 | 2.35 | 1.49 | 1.49 |  |  |  |  | immunoglobulin with Fc variant K392T, P396L (antibody)
 |  |  |  |  |  |  |  | 0.9 fold | -0.7 fold | 1 fold | immunoglobulin with Fc variant P247L, D270E, N421K (antibody)
1.16 | 0.8 | 1.84 |  |  | 2.44 |  |  |  |  |  | immunoglobulin with Fc variant P247L, D270E, Y300L, N421K (antibody)
1.19 | 1.33 | 0.63 | 1.19 | 1.33 | 1.19 | 1.19 |  |  |  |  | immunoglobulin with Fc variant P396L, Q419H (antibody)
 | 0.65 | 1.05 |  | 0.65 |  |  |  |  |  |  | immunoglobulin with Fc variant R255L, D270E, R292G, P396L (antibody)
 |  |  |  |  |  |  | 0.6 fold |  | -2.7 fold | -0.5 fold | immunoglobulin with Fc variant R292P (antibody)
2.11 and 1.28 |  | 1.56 and 0.75 | 1.28 and 2.11 |  | 1.59 and 1.32 | 1.32 and 1.59 |  |  |  |  | immunoglobulin with Fc variant R292P, V305I (antibody)
